B1: LINE1-full (parent)
chain: UACGUAGGUGGUUUUCCCCUGAUAGUGCUAAGGGGGCCUGGAAGUUUGGACUGGGCAGAGCUCAACACAGCGUGGCAAAGUGGCUGUGGCUAGACUGCCUCUCUGGAUUCCUCGUCACUCAGCAGGGCAUCUCUGAGAGAAAUGCC

Variants of: B1
Test: self-cleavage, relative activity (ratio to wild type); higher = more cleavage; in vitro, sequencing; the parent is a self-cleaving ribozyme

| Variant | self-cleavage |
| --- | --- |
| UACGUAGGUGGUUUUCCCCUGACAGUGCUGAGGGGGCCUGGAAGUUUGGACUGGGCAGAGCUCAACACAGCGUGGCAAAGUGGCUGUGGCUAGACUGCCUCUCUGGAUUCCUCGUCACUCAGCAGGGCAUCUCUGAGAGAAAUGCC [U23C A30G] | 0.89 |
| UACGUAGGUGGUUUUCCCCUGAUGGUUCUAAGGGGGCCUGGAAGUUUGGACUGGGCAGAGCUCAACACAGCGUGGCAAAGUGGCUGUGGCUAGACUGCCUCUCUGGAUUCCUCGUCACUCAGCAGGGCAUCUCUGAGAGAAAUGCC [A24G G27U] | 1.17 |
| UACGUAGGUGGUUUUCCCCUGAUAGUGCUAAGGGGGCCUGGAAGUUUGGACUGGGCAGAGCUCAACACAGCGUGGCAAAGUGGCUGUGGCUAGACUGCCUCUCUGGAUUCCUCGUCACUCAGAAGGGCAUCUCUGAGAGAGAUGCC [C123A A141G] | 1.35 |
| UUCGUAGGUGGUUUUCCCCUGAUAGUGCUAAGGGGGCCUGGAAGUUUGGACUGGGCAGAGCUCAACACAGCGUGGCAAAGUGGCUGUGGCUAGACUGCCUCUCUGGAUUCCUCGUCACUCAGCAGGGCAUCUCUGAGAGAACUGCC [A2U A142C] | 1.09 |
| UACGAAGGUGGUUUUCCCCUGAUAGUGCUAUGGGGGCCUGGAAGUUUGGACUGGGCAGAGCUCAACACAGCGUGGCAAAGUGGCUGUGGCUAGACUGCCUCUCUGGAUUCCUCGUCACUCAGCAGGGCAUCUCUGAGAGAAAUGCC [U5A A31U] | 1.1 |
| UACGUAGGUGGUUUUCCCCUGAUAGUGCUAAGGGGGCCUGGAAGUUUGGACUGGGCAGAGCUCAACACAGCGUGGCAAAGUGGCGGUGGCUAGACUGCCUCUCUGGAUUCCACGUCACUCAGCAGGGCAUCUCUGAGAGAAAUGCC [U85G U112A] | 0.26 |
| UACGUAGGUGGUUUUCCCCUGAUAGUGCUAAGGGGGCCUGGAAGUUUGGACUGGGCAGAGCCCAACACAGCGUGGCAAAGUGGCUGUGGCUAGACUGCCUCUCUGGAUUCUUCGUCACUCAGCAGGGCAUCUCUGAGAGAAAUGCC [U62C C111U] | 0.02 |
| UACGUAGGUGGCUUUCCCCUGAUAGUGCUAAGGGGGCCUGGAAGUUUGGACUGGGCAGAGCUCAACUCAGCGUGGCAAAGUGGCUGUGGCUAGACUGCCUCUCUGGAUUCCUCGUCACUCAGCAGGGCAUCUCUGAGAGAAAUGCC [U12C A67U] | 0.21 |
| UACGUAGGUGGUUUUCCCCUGAUAGUGCCAAGGGGGCCUGGAAGUUUGGACUGGGCAGAGCUCAAUACAGCGUGGCAAAGUGGCUGUGGCUAGACUGCCUCUCUGGAUUCCUCGUCACUCAGCAGGGCAUCUCUGAGAGAAAUGCC [U29C C66U] | 0.07 |
| UACGUAGGUGGUUCUCCCCUGAUAGUGCUAAGGGGGCCUGGAAGUUUGGACUGGGCAGAUCUCAACACAGCGUGGCAAAGUGGCUGUGGCUAGACUGCCUCUCUGGAUUCCUCGUCACUCAGCAGGGCAUCUCUGAGAGAAAUGCC [U14C G60U] | 0.04 |
| UACGUAGGUGGUUUUCCCCUGAUAGUGCUAAGGGGGCCUGGAAGUUUGGACUGGGCAGAGCUCAACACAGCGUGGCAAAGUGGCUAUGGCUAGACUGCCUCUCUGGAUUCCUCGUCACUCAGCAGGGCAUCUCUGAGAGAAGUGCC [G86A A142G] | 0.06 |
| UACGUAGGUGGUUUUCCCCUGAUAGUGCUAAGGGGGCCUGGAAGUUUGGACUUGGCAGAGCUCAACACAGCGUGGCAAAGUGGCAGUGGCUAGACUGCCUCUCUGGAUUCCUCGUCACUCAGCAGGGCAUCUCUGAGAGAAAUGCC [G53U U85A] | 0.11 |
| UACGUAGGUGGUUUCCCCCUGAUAGUGCUAAGGGGGCCUGGAAGUUUGGACUGGGCAGAGCUCAACACAGCGUGGCAAAGUGGCUGUGGCUAGACUGCCUCUCUGGAUUCCUCGUCACUCAGCAGGGCAUCUCUGAGCGAAAUGCC [U15C A138C] | 1.59 |
| UACGUAGGUGGUUUUCCCCUGAUAGUGCUAAGGGGGCCUGGAAGUUUGGACUGGGCAGAGCUCAACACAGCGUGGCAAAGCGGCUGUGGCUAGACUGCCUCUCUGGAUUCCUCGUCACUCGGCAGGGCAUCUCUGAGAGAAAUGCC [U81C A121G] | 1.38 |
| UACGUAGGCGGUUUUCCCCUGAUAGUGCUAAGGGGGCCUGGAAGUUUGGACUGGGCAGAGCUCAACACAGCGUGGCAAAGUGGCUGUGGCUAAACUGCCUCUCUGGAUUCCUCGUCACUCAGCAGGGCAUCUCUGAGAGAAAUGCC [U9C G93A] | 0.05 |
| UACGUAGGUGGUUUUCCCCUGAUAGUGCUAAGGGGGCCUGGAAGUUUGGACUGGGCAGAGCUCUACACAGCGUGGCAAAGUGGCUGAGGCUAGACUGCCUCUCUGGAUUCCUCGUCACUCAGCAGGGCAUCUCUGAGAGAAAUGCC [A64U U87A] | 0.06 |
| UACGUAGGUGGGUUUCCCCUGAUAGUGCUAAGGGGGCCUGGAAGCUUGGACUGGGCAGAGCUCAACACAGCGUGGCAAAGUGGCUGUGGCUAGACUGCCUCUCUGGAUUCCUCGUCACUCAGCAGGGCAUCUCUGAGAGAAAUGCC [U12G U45C] | 1.48 |
| UACGUAGGUGGUUUUCCCCUGAUAGUGCUAAGGGGGCCUGGAAGUUUGGACUGAGCAGAGCUCAACACAGCGUGGCAAAGUGGCUGUGGCUAGACUGCCUCUCUGGAUUCCUCGUCACUCAGCAGGGCUUCUCUGAGAGAAAUGCC [G54A A129U] | 0.4 |
| UACGUAGGUGGUUUUCCCCUGAUAGUGCUAAGGGGGCCUGGAAGUUUGGACUGGGCAGAGCUCAACACAGCGUGGCCAAGUGGCUGUGGCUAGGCUGCCUCUCUGGAUUCCUCGUCACUCAGCAGGGCAUCUCUGAGAGAAAUGCC [A77C A94G] | 0 |
